PMC8660055

Tests used:
[1] = biological target: PDCoV S1 protein (porcine deltacoronavirus (PDCoV)); assay: ELISA
[2] = biological target: PDCoV S2 protein (porcine deltacoronavirus (PDCoV)); assay: ELISA

Substance: Griffithsin (from UniProt P84801 1-121) (natural protein)
- OD450 reached in ELISA [1]: 3.68 OD450
- OD450 reached in ELISA [2]: 1.93 OD450
